This test concerns the target T1, Wnt3 (human, UniProt P56703 22-355 at identity 1.00), limits assumed).
T1 chain: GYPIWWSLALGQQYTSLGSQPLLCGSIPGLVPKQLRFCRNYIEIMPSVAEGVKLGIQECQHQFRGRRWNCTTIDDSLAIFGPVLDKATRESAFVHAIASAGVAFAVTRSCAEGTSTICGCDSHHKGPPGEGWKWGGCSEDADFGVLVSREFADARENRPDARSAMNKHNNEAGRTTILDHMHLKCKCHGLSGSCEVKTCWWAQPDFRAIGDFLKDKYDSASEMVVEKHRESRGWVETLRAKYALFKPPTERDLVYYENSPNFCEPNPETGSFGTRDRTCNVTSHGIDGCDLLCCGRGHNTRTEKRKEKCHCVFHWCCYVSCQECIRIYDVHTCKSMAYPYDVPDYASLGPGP
As to the kind of experiment: cell-based or functional assay.

2 molecules from US20070072239A1 (Pfizer, published 2007) can be followed below.

B1: SFRP-1/SFRP-2 (1-248/238-295) chimera (receptor)
chain: SEYDYVSFQSDIGPYQSGRFYTKPPQCVDIPADLRLCHNVGYKKMVLPNLLEHETMAEVKQQASSWVPLLNKNCHAGTQVFLCSLFAPVCLDRPIYPCRWLCEAVRDSCEPVMQFFGFYWPEMLKCDKFPEGDVCIAMTPPNATEASKPQGTTVCPPCDNELKSEAIIEHLCASEFALRMKIKEVKKENGDKKIVPKKKKPLKLGPIKKKDLKKLVLWLKDSLQCTCEEMNDINAPYLVMGQKQGGELVITSVKRWQKGQREFKRISRSIRKLQC
Regarding B1, the “loss of Wnt3 antagonist activity relative to SFRP-1 (TCF-Luciferase reporter)” value was ~40 % loss of activity.

B2: SFRP-1/SFRP-2(1-226)/(214-295) chimera (receptor)
chain: SEYDYVSFQSDIGPYQSGRFYTKPPQCVDIPADLRLCHNVGYKKMVLPNLLEHETMAEVKQQASSWVPLLNKNCHAGTQVFLCSLFAPVCLDRPIYPCRWLCEAVRDSCEPVMQFFGFYWPEMLKCDKFPEGDVCIAMTPPNATEASKPQGTTVCPPCDNELKSEAIIEHLCASEFALRMKIKEVKKENGDKKIVLETKSKTIYKLNGVSERDLKKSVLWLKDSLQCTCEEMNDINAPYLVMGQKQGGELVITSVKRWQKGQREFKRISRSIRKLQC
As for B2, the “loss of Wnt3 antagonist activity relative to SFRP-1 (TCF-Luciferase reporter)” value was ~40 % loss of activity.
